# In patent US11306156:
# Experiments:
# [1] = target: D3H44 light chain Q124E_Q160E_T180E with N-terminal HA or FLAG tag; assay: LCCA (SPR tag readout), L1:L2 DNA 1:3, normalized to 1:1; competing light chain m12
# [2] = target: D3H44 light chain Q124E_T180E with N-terminal HA or FLAG tag; assay: as above
# [3] = target: D3H44 light chain Q124R_T178R with N-terminal HA or FLAG tag; assay: LCCA (SPR tag readout), L1:L2 DNA 1:9, normalized to 1:1; competing light chain m10
# [4] = target: D3H44 light chain Q124E_Q160E_T180E with N-terminal HA or FLAG tag; assay: LCCA (SPR tag readout), L1:L2 DNA 1:3, normalized to 1:1; competing light chain m17
# [5] = target: D3H44 light chain Q124E_Q160E_T180E with N-terminal HA or FLAG tag; assay: LCCA (SPR tag readout), L1:L2 DNA 1:9, normalized to 1:1; competing light chain m12
# [6] = target: D3H44 light chain Q124E_T180E with N-terminal HA or FLAG tag; assay: as above
# [7] = target: D3H44 light chain Q124R_T178R with N-terminal HA or FLAG tag; assay: LCCA (SPR tag readout), L1:L2 DNA 1:3, normalized to 1:1; competing light chain m10
# [8] = target: D3H44 light chain Q124K_T178R with N-terminal HA or FLAG tag; assay: LCCA (SPR tag readout), L1:L2 DNA 1:9, normalized to 1:1; competing light chain m18
# [9] = target: D3H44 light chain Q124K_T178R with N-terminal HA or FLAG tag; assay: LCCA (SPR tag readout), L1:L2 DNA 1:3, normalized to 1:1; competing light chain m18
# [10] = target: D3H44 light chain F116C_Q124R_T178R with N-terminal HA or FLAG tag; assay: as above
# [11] = target: D3H44 light chain Q124E_T180E with N-terminal HA or FLAG tag; assay: LCCA (SPR tag readout), L1:L2 DNA 1:3, normalized to 1:1; competing light chain m15
# [12] = target: D3H44 light chain Q124R_T178R with N-terminal HA or FLAG tag; assay: LCCA (SPR tag readout), L1:L2 DNA 1:3, normalized to 1:1; competing light chain m13
# [13] = target: D3H44 light chain T178R with N-terminal HA or FLAG tag; assay: as above
# [14] = target: D3H44 light chain Q124R_T178K with N-terminal HA or FLAG tag; assay: as above
# [15] = target: D3H44 light chain Q124K_T178R with N-terminal HA or FLAG tag; assay: as above
# [16] = target: D3H44 light chain Q124K_T178R with N-terminal HA or FLAG tag; assay: LCCA (SPR tag readout), L1:L2 DNA 1:9, normalized to 1:1; competing light chain m13
# [17] = target: D3H44 light chain Q124E_T178E_T180E with N-terminal HA or FLAG tag; assay: LCCA (SPR tag readout), L1:L2 DNA 1:9, normalized to 1:1; competing light chain m9
# [18] = target: D3H44 light chain Q124E_T180E with N-terminal HA or FLAG tag; assay: LCCA (SPR tag readout), L1:L2 DNA 1:3, normalized to 1:1; competing light chain m19
# [19] = target: D3H44 light chain Q124E_T178E_T180E with N-terminal HA or FLAG tag; assay: LCCA (SPR tag readout), L1:L2 DNA 1:3, normalized to 1:1; competing light chain m9
# [20] = target: D3H44 light chain Q124E_T180E with N-terminal HA or FLAG tag; assay: as above
# [21] = target: D3H44 light chain Q124E_T180E with N-terminal HA or FLAG tag; assay: LCCA (SPR tag readout), L1:L2 DNA 1:3, normalized to 1:1; competing light chain m14
# [22] = target: D3H44 light chain Q124R_T178R with N-terminal HA or FLAG tag; assay: LCCA (SPR tag readout), L1:L2 DNA 1:9, normalized to 1:1; competing light chain m16
# [23] = target: D3H44 light chain T178R with N-terminal HA or FLAG tag; assay: LCCA (SPR tag readout), L1:L2 DNA 1:9, normalized to 1:1; competing light chain m18
# [24] = target: D3H44 light chain T178R with N-terminal HA or FLAG tag; assay: LCCA (SPR tag readout), L1:L2 DNA 1:3, normalized to 1:1; competing light chain m18
# [25] = target: D3H44 light chain Q124E_Q160E_T180E with N-terminal HA or FLAG tag; assay: LCCA (SPR tag readout), L1:L2 DNA 1:9, normalized to 1:1; competing light chain m19
# [26] = target: D3H44 light chain Q124R_T178R with N-terminal HA or FLAG tag; assay: LCCA (SPR tag readout), L1:L2 DNA 1:3, normalized to 1:1; competing light chain m16
# [27] = target: D3H44 light chain Q124R_T178R with N-terminal HA or FLAG tag; assay: LCCA (SPR tag readout), L1:L2 DNA 1:3, normalized to 1:1; competing light chain m11
# [28] = target: D3H44 light chain Q124R_Q160K_T178R with N-terminal HA or FLAG tag; assay: LCCA (SPR tag readout), L1:L2 DNA 1:3, normalized to 1:1; competing light chain m13
# [29] = target: D3H44 light chain Q124R_T178R with N-terminal HA or FLAG tag; assay: LCCA (SPR tag readout), L1:L2 DNA 1:9, normalized to 1:1; competing light chain m13
# [30] = target: D3H44 light chain Q124E_T178E with N-terminal HA or FLAG tag; assay: LCCA (SPR tag readout), L1:L2 DNA 1:9, normalized to 1:1; competing light chain m9
# [31] = target: D3H44 light chain Q124E_V133D with N-terminal HA or FLAG tag; assay: as above
# [32] = target: D3H44 light chain Q124E_T180E with N-terminal HA or FLAG tag; assay: as above
# [33] = target: D3H44 light chain Q124E_Q160E_T180E with N-terminal HA or FLAG tag; assay: LCCA (SPR tag readout), L1:L2 DNA 1:3, normalized to 1:1; competing light chain m19
# [34] = target: D3H44 light chain Q124E_T178E with N-terminal HA or FLAG tag; assay: LCCA (SPR tag readout), L1:L2 DNA 1:3, normalized to 1:1; competing light chain m9
# [35] = target: D3H44 light chain Q124E_V133D with N-terminal HA or FLAG tag; assay: as above
# [36] = target: D3H44 light chain Q124R_T178R with N-terminal HA or FLAG tag; assay: LCCA (SPR tag readout), L1:L2 DNA 1:9, normalized to 1:1; competing light chain m11
# [37] = target: D3H44 light chain Q124R_T178R with N-terminal HA or FLAG tag; assay: LCCA (SPR tag readout), L1:L2 DNA 1:9, normalized to 1:1; competing light chain m18
# [38] = target: D3H44 light chain Q124R_T178K with N-terminal HA or FLAG tag; assay: as above
# [39] = target: D3H44 light chain Q124R_T178R with N-terminal HA or FLAG tag; assay: LCCA (SPR tag readout), L1:L2 DNA 1:3, normalized to 1:1; competing light chain m18
# [40] = target: D3H44 light chain Q124R_T178K with N-terminal HA or FLAG tag; assay: as above
# [41] = target: D3H44 light chain Q124E_Q160E_T180E with N-terminal HA or FLAG tag; assay: LCCA (SPR tag readout), L1:L2 DNA 1:3, normalized to 1:1; competing light chain m15
# [42] = target: D3H44 light chain Q124E_Q160E_T180E with N-terminal HA or FLAG tag; assay: LCCA (SPR tag readout), L1:L2 DNA 1:9, normalized to 1:1; competing light chain m15
# [43] = target: D3H44 light chain Q124E_Q160E_T180E with N-terminal HA or FLAG tag; assay: LCCA (SPR tag readout), L1:L2 DNA 1:9, normalized to 1:1; competing light chain m9
# [44] = target: D3H44 light chain Q124E_Q160E_T180E with N-terminal HA or FLAG tag; assay: LCCA (SPR tag readout), L1:L2 DNA 1:3, normalized to 1:1; competing light chain m9
substance,measurement,setting,value
D3H44 Fab heavy chain Q179K with C-terminal ABD2-His6 tag,H2L2:H2L1 normalized median ratio,[1],92%
same,H2L2:H2L1 normalized median ratio,[2],96%
same,H2L2:H2L1 normalized median ratio,[3],9%
same,H2L2:H2L1 normalized median ratio,[4],94%
same,H2L2:H2L1 normalized median ratio,[5],90%
same,H2L2:H2L1 normalized median ratio,[6],87%
same,H2L2:H2L1 normalized median ratio,[7],8%
same,H2L2:H2L1 normalized median ratio,[8],10%
same,H2L2:H2L1 normalized median ratio,[9],8%
same,H2L2:H2L1 normalized median ratio,[10],6%
same,H2L2:H2L1 normalized median ratio,[11],96%
same,H2L2:H2L1 normalized median ratio,[12],4%
same,H2L2:H2L1 normalized median ratio,[13],4%
same,H2L2:H2L1 normalized median ratio,[14],4%
same,H2L2:H2L1 normalized median ratio,[15],4%
same,H2L2:H2L1 normalized median ratio,[16],13%
same,H2L2:H2L1 normalized median ratio,[17],91%
same,H2L2:H2L1 normalized median ratio,[18],96%
same,H2L2:H2L1 normalized median ratio,[19],92%
same,H2L2:H2L1 normalized median ratio,[20],96%
D3H44 Fab heavy chain L143E_K145T_Q179E with C-terminal ABD2-His6 tag,H1L1:H1L2 normalized median ratio,[21],27%
same,H1L1:H1L2 normalized median ratio,[1],12%
same,H1L1:H1L2 normalized median ratio,[2],30%
same,H1L1:H1L2 normalized median ratio,[22],88%
same,H1L1:H1L2 normalized median scalar value ln(r1/f1),[22],1.96
same,H1L1:H1L2 normalized median ratio,[3],92%
same,H1L1:H1L2 normalized median scalar value ln(r1/f1),[3],2.45
same,H1L1:H1L2 normalized median ratio,[5],12%
same,H1L1:H1L2 normalized median ratio,[7],92%
same,H1L1:H1L2 normalized median scalar value ln(r1/f1),[7],2.46
same,H1L1:H1L2 normalized median ratio,[23],75%
same,H1L1:H1L2 normalized median scalar value ln(r1/f1),[23],1.1
same,H1L1:H1L2 normalized median ratio,[8],88%
same,H1L1:H1L2 normalized median scalar value ln(r1/f1),[8],2.02
same,H1L1:H1L2 normalized median ratio,[24],89%
same,H1L1:H1L2 normalized median scalar value ln(r1/f1),[24],2.14
same,H1L1:H1L2 normalized median ratio,[9],88%
same,H1L1:H1L2 normalized median scalar value ln(r1/f1),[9],2
same,H1L1:H1L2 normalized median ratio,[11],16%
same,H1L1:H1L2 normalized median ratio,[25],25%
same,H1L1:H1L2 normalized median ratio,[26],92%
same,H1L1:H1L2 normalized median scalar value ln(r1/f1),[26],2.41
same,H1L1:H1L2 normalized median ratio,[27],86%
same,H1L1:H1L2 normalized median scalar value ln(r1/f1),[27],1.83
same,H1L1:H1L2 normalized median ratio,[12],85%
same,H1L1:H1L2 normalized median scalar value ln(r1/f1),[12],1.75
same,H1L1:H1L2 normalized median ratio,[28],73%
same,H1L1:H1L2 normalized median scalar value ln(r1/f1),[28],1
same,H1L1:H1L2 normalized median ratio,[14],84%
same,H1L1:H1L2 normalized median scalar value ln(r1/f1),[14],1.69
same,H1L1:H1L2 normalized median ratio,[15],70%
same,H1L1:H1L2 normalized median scalar value ln(r1/f1),[15],0.84
same,H1L1:H1L2 normalized median ratio,[29],83%
same,H1L1:H1L2 normalized median scalar value ln(r1/f1),[29],1.59
same,H1L1:H1L2 normalized median ratio,[30],15%
same,H1L1:H1L2 normalized median ratio,[31],12%
same,H1L1:H1L2 normalized median ratio,[17],8%
same,H1L1:H1L2 normalized median ratio,[32],17%
same,H1L1:H1L2 normalized median ratio,[33],11%
same,H1L1:H1L2 normalized median ratio,[34],14%
same,H1L1:H1L2 normalized median ratio,[35],8%
same,H1L1:H1L2 normalized median ratio,[19],8%
same,H1L1:H1L2 normalized median ratio,[20],15%
same,H1L1:H1L2 normalized median ratio,[36],85%
same,H1L1:H1L2 normalized median scalar value ln(r1/f1),[36],1.77
D3H44 Fab heavy chain L143E_K145T_Q179D with C-terminal ABD2-His6 tag,H1L1:H1L2 normalized median ratio,[21],31%
same,H1L1:H1L2 normalized median ratio,[2],15%
same,H1L1:H1L2 normalized median ratio,[6],11%
same,H1L1:H1L2 normalized median ratio,[37],82%
same,H1L1:H1L2 normalized median scalar value ln(r1/f1),[37],1.55
same,H1L1:H1L2 normalized median ratio,[38],78%
same,H1L1:H1L2 normalized median scalar value ln(r1/f1),[38],1.28
same,H1L1:H1L2 normalized median ratio,[39],87%
same,H1L1:H1L2 normalized median scalar value ln(r1/f1),[39],1.9
same,H1L1:H1L2 normalized median ratio,[40],89%
same,H1L1:H1L2 normalized median scalar value ln(r1/f1),[40],2.08
same,H1L1:H1L2 normalized median ratio,[41],11%
same,H1L1:H1L2 normalized median ratio,[11],16%
same,H1L1:H1L2 normalized median ratio,[42],22%
same,H1L1:H1L2 normalized median ratio,[12],76%
same,H1L1:H1L2 normalized median scalar value ln(r1/f1),[12],1.14
same,H1L1:H1L2 normalized median ratio,[28],69%
same,H1L1:H1L2 normalized median scalar value ln(r1/f1),[28],0.79
same,H1L1:H1L2 normalized median ratio,[14],84%
same,H1L1:H1L2 normalized median scalar value ln(r1/f1),[14],1.63
same,H1L1:H1L2 normalized median ratio,[15],85%
same,H1L1:H1L2 normalized median scalar value ln(r1/f1),[15],1.74
same,H1L1:H1L2 normalized median ratio,[16],89%
same,H1L1:H1L2 normalized median scalar value ln(r1/f1),[16],2.05
same,H1L1:H1L2 normalized median ratio,[43],18%
same,H1L1:H1L2 normalized median ratio,[44],13%
same,H1L1:H1L2 normalized median ratio,[20],24%
